Experimental data published in article PMC6863848, “Selection of an optimal macrocyclic chelator improves the imaging of prostate cancer using cobalt-labeled GRPR antagonist RM26” (Scientific Reports, 2019).

Experiments:
[1] = Ex vivo biodistribution and tumor targeting; settings: female, BALB/c nu/nu, mouse, iv, 45 pmol per mouse, total radioactivity
Description: (§1) Euthanasia was performed by intraperitoneal injection of Ketalar-Rompun solution (10 mg/mL Ketalar and 1 mg/mL Rompun; 20 µL/g body weight) and all efforts were made to minimize suffering. Groups of 4 mice per data point were used.
(§2) Blood samples were collected by heart puncture. Lung, liver, spleen, pancreas, stomach, small intestines, kidneys, muscle, bone, and the rest of gastrointestinal tract with its content were collected, weighed and measured in a gamma-counter. The organ uptake values were expressed as a percentage of injected dose per gram of tissue weight (%ID/g) with the exception of gastrointestinal tract and the remaining carcass, which were calculated as %ID per whole sample.
(§3) The biodistribution and targeting properties of ^57Co-X-PEG2-RM26 were evaluated in female BALB/c nu/nu mice (weight: 18 ± 2 g). GRPR-expressing xenografts were established by subcutaneous injection of 8 × 10^6 PC-3 cells/mouse, 2 weeks prior to the experiment. At the time of experiment, the mice were intravenously injected with ^57Co-X-PEG2-RM26 (25 kBq, 45 pmol in 100 µL PBS per mouse) and were euthanized 3 and 24 h pi.

[2] = tested on: PC-3 xenografted BALB/c nu/nu mice; assay: Ex vivo biodistribution and tumor targeting; settings: 24 h pi
Description: as §1, §2, §3

in vivo = settings: female, BALB/c nu/nu, mouse, iv, 45 pmol per mouse, total radioactivity
Description: as §1, §2, §3

NMRI mice = settings: 25 kBq, 3 and 24 h pi
Description: as §2

[3] = blood, Blood uptake, PC-3-xenografted BALB/c nu/nu mice, iv 25 kBq/45 pmol, 3 h pi, 4 mice per data point
[4] = blood, Blood uptake, PC-3-xenografted BALB/c nu/nu mice, iv 25 kBq/45 pmol, 24 h pi, 4 mice per data point
[5] = bone, Bone uptake, PC-3-xenografted BALB/c nu/nu mice, iv 25 kBq/45 pmol, 3 h pi, 4 mice per data point
[6] = bone, Bone uptake, PC-3-xenografted BALB/c nu/nu mice, iv 25 kBq/45 pmol, 24 h pi, 4 mice per data point
[7] = gastrointestinal tract with content (whole sample)
[8] = kidneys, Kidneys uptake, PC-3-xenografted BALB/c nu/nu mice, iv 25 kBq/45 pmol, 3 h pi, 4 mice per data point
[9] = kidneys, Kidneys uptake, PC-3-xenografted BALB/c nu/nu mice, iv 25 kBq/45 pmol, 24 h pi, 4 mice per data point
[10] = liver, Liver uptake, PC-3-xenografted BALB/c nu/nu mice, iv 25 kBq/45 pmol, 3 h pi, 4 mice per data point
[11] = liver, Liver uptake, PC-3-xenografted BALB/c nu/nu mice, iv 25 kBq/45 pmol, 24 h pi, 4 mice per data point
[12] = lung, Lung uptake, PC-3-xenografted BALB/c nu/nu mice, iv 25 kBq/45 pmol, 3 h pi, 4 mice per data point
[13] = lung, Lung uptake, PC-3-xenografted BALB/c nu/nu mice, iv 25 kBq/45 pmol, 24 h pi, 4 mice per data point
[14] = muscle, Muscle uptake, PC-3-xenografted BALB/c nu/nu mice, iv 25 kBq/45 pmol, 3 h pi, 4 mice per data point
[15] = muscle, Muscle uptake, PC-3-xenografted BALB/c nu/nu mice, iv 25 kBq/45 pmol, 24 h pi, 4 mice per data point
[16] = pancreas, Pancreas uptake, PC-3-xenografted BALB/c nu/nu mice, iv 25 kBq/45 pmol, 3 h pi, 4 mice per data point
[17] = pancreas, Pancreas uptake, PC-3-xenografted BALB/c nu/nu mice, iv 25 kBq/45 pmol, 24 h pi, 4 mice per data point
[18] = remaining carcass (whole sample)
[19] = small intestine, Sm. Int. uptake, PC-3-xenografted BALB/c nu/nu mice, iv 25 kBq/45 pmol, 3 h pi, 4 mice per data point
[20] = small intestine, Sm. Int. uptake, PC-3-xenografted BALB/c nu/nu mice, iv 25 kBq/45 pmol, 24 h pi, 4 mice per data point
[21] = spleen, Spleen uptake, PC-3-xenografted BALB/c nu/nu mice, iv 25 kBq/45 pmol, 3 h pi, 4 mice per data point
[22] = spleen, Spleen uptake, PC-3-xenografted BALB/c nu/nu mice, iv 25 kBq/45 pmol, 24 h pi, 4 mice per data point
[23] = stomach, Stomach uptake, PC-3-xenografted BALB/c nu/nu mice, iv 25 kBq/45 pmol, 3 h pi, 4 mice per data point
[24] = stomach, Stomach uptake, PC-3-xenografted BALB/c nu/nu mice, iv 25 kBq/45 pmol, 24 h pi, 4 mice per data point
[25] = tumor, Tumor uptake, PC-3-xenografted BALB/c nu/nu mice, iv 25 kBq/45 pmol, 3 h pi, 4 mice per data point
[26] = tumor, Tumor uptake, PC-3-xenografted BALB/c nu/nu mice, iv 25 kBq/45 pmol, 24 h pi, 4 mice per data point

SMILES | tissue uptake at 3 h [1, 3] [%ID/g] | tissue uptake at 24 h [1, 4] [%ID/g] | tissue uptake at 3 h [1, 5] [%ID/g] | tissue uptake at 24 h [1, 6] [%ID/g] | tissue uptake dose at 3 h [1, 7] [%ID] | tissue uptake dose at 24 h [1, 7] [%ID] | tissue uptake at 3 h [1, 8] [%ID/g] | tissue uptake at 3 h [1, 10] [%ID/g] | tissue uptake at 24 h [1, 11] [%ID/g] | tissue uptake at 3 h [1, 12] [%ID/g] | tissue uptake at 24 h [1, 13] [%ID/g] | tissue uptake at 24 h [1, 15] [%ID/g] | tissue uptake at 24 h [1, 17] [%ID/g] | tissue uptake dose at 3 h [1, 18] [%ID] | tissue uptake dose at 24 h [1, 18] [%ID] | tissue uptake at 3 h [1, 19] [%ID/g] | tissue uptake at 24 h [1, 22] [%ID/g] | tissue uptake at 3 h [1, 23] [%ID/g] | tissue uptake at 3 h [1, 25] [%ID/g] | tissue uptake at 24 h [1, 26] [%ID/g] | other results
CC(C)C[C@H](NC(=O)C[C@H](O)[C@H](CC(C)C)NC(=O)[C@H](Cc1c[nH]cn1)NC(=O)CNC(=O)[C@@H](NC(=O)[C@H](C)NC(=O)[C@H](Cc1c[nH]c2ccccc12)NC(=O)[C@H](CCC(N)=O)NC(=O)[C@@H](Cc1ccccc1)NC(=O)COCCOCCNC(=O)CCC(C(=O)O)N1CCN(CC(=O)O)CCN(CC(=O)O)CCN(CC(=O)O)CC1)C(C)C)C(N)=O (stereo partly drawn) [DOTAGA] | 0.02 ± 0.01 | 0.005 ± 0.002 | 0.02 ± 0.005 | 0.02 ± 0.03 | 1 ± 0.5 | 0.1 ± 0.1 | 3.5 ± 0.4 | 0.08 ± 0.02 | 0.04 ± 0.01 | 0.07 ± 0.03 | 0.02 ± 0.02 | 0.007 ± 0.007 | 0.028 ± 0.009 | 1.9 ± 0.9 | 0.3 ± 0.3 | 0.13 ± 0.05 | 0.016 ± 0.009 | 0.4 ± 0.3 | 6.9 ± 2.7 | 2.3 ± 0.7 | tissue uptake at 24 h [1, 9]: 1.8 ± 0.5 %ID/g; tissue uptake at 3 h [1, 14]: 0.04 ± 0.01 %ID/g; tissue uptake at 3 h [1, 16]: 0.4 ± 0.1 %ID/g; tissue uptake at 24 h [1, 20]: 0.02 ± 0.01 %ID/g; tissue uptake at 3 h [1, 21]: 0.08 ± 0.05 %ID/g; tissue uptake at 24 h [1, 24]: 0.018 ± 0.004 %ID/g; Kidney uptake, higher compared to NODAGA- and DOTA-containing analogues [2]: twofold higher
CC(C)C[C@H](NC(=O)C[C@H](O)[C@H](CC(C)C)NC(=O)[C@H](Cc1c[nH]cn1)NC(=O)CNC(=O)[C@@H](NC(=O)[C@H](C)NC(=O)[C@H](Cc1c[nH]c2ccccc12)NC(=O)[C@H](CCC(N)=O)NC(=O)[C@@H](Cc1ccccc1)NC(=O)COCCOCCNC(=O)CN1CCN(CC(=O)O)CCN(CC(=O)O)CCN(CC(=O)O)CC1)C(C)C)C(N)=O [DOTA] | 0.028 ± 0.006 | 0.007 ± 0.002 | 0.08 ± 0.03 | 0.09 ± 0.06 | 4.8 ± 0.1 | 0.21 ± 0.09 | 1.9 ± 0.3 | 0.078 ± 0.009 | 0.034 ± 0.003 | 0.06 ± 0.01 | 0.023 ± 0.004 | 0.02 ± 0.01 | 0.05 ± 0.01 | 0.9 ± 0.4 | 0.2 ± 0.1 | 0.9 ± 0.1 | 0.035 ± 0.006 | 2.1 ± 0.6 | 8.1 ± 0.6 | 4.4 ± 1.3 | tissue uptake dose at 3 h ([1]; gastrointestinal tract with contents): 5 %ID; tissue uptake at 24 h ([1]; kidneys): 0.8 ± 0.2 %ID/g; tissue uptake at 3 h ([1]; muscle): 0.4 ± 0.7 %ID/g; tissue uptake at 3 h [1, 16]: 2.5 ± 0.8 %ID/g; tissue uptake at 24 h [1, 20]: 0.06 ± 0.02 %ID/g; tissue uptake at 3 h [1, 21]: 0.09 ± 0.02 %ID/g; tissue uptake at 24 h [1, 24]: 0.06 ± 0.02 %ID/g; Tumor radioactivity, higher than other conjugates [2]: twofold higher
CC(C)C[C@H](NC(=O)C[C@H](O)[C@H](CC(C)C)NC(=O)[C@H](Cc1c[nH]cn1)NC(=O)CNC(=O)[C@@H](NC(=O)[C@H](C)NC(=O)[C@H](Cc1c[nH]c2ccccc12)NC(=O)[C@H](CCC(N)=O)NC(=O)[C@@H](Cc1ccccc1)NC(=O)COCCOCCNC(=O)CCC(C(=O)O)N1CCN(CC(=O)O)CCN(CC(=O)O)CC1)C(C)C)C(N)=O (stereo partly drawn) [NODAGA] | 0.032 ± 0.009 | 0.006 ± 0.003 | 0.1 ± 0.2 | 0.007 ± 0.002 | 5 ± 1 | 0.3 ± 0.2 | 2.5 ± 0.8 | 0.08 ± 0.02 | 0.02 ± 0.01 | 0.05 ± 0.01 | 0.02 ± 0.01 | 0.006 ± 0.005 | 0.02 ± 0.03 | 1.3 ± 0.3 | 0.1 ± 0.1 | 0.3 ± 0.3 | 0.009 ± 0.002 | 0.39 ± 0.09 | 6.3 ± 1.2 | 2.3 ± 0.9 | tissue uptake at 24 h [1, 9]: 0.7 ± 0.4 %ID/g; tissue uptake at 3 h [1, 14]: 0.02 ± 0.01 %ID/g; tissue uptake at 3 h [1, 16]: 0.3 ± 0.2 %ID/g; tissue uptake at 24 h [1, 20]: 0.015 ± 0.007 %ID/g; tissue uptake at 3 h [1, 21]: 0.05 ± 0.02 %ID/g; tissue uptake at 24 h [1, 24]: 0.04 ± 0.01 %ID/g
CC(C)C[C@H](NC(=O)C[C@H](O)[C@H](CC(C)C)NC(=O)[C@H](Cc1c[nH]cn1)NC(=O)CNC(=O)[C@@H](NC(=O)[C@H](C)NC(=O)[C@H](Cc1c[nH]c2ccccc12)NC(=O)[C@H](CCC(N)=O)NC(=O)[C@@H](Cc1ccccc1)NC(=O)COCCOCCNC(=O)CN1CCN(CC(=O)O)CCN(CC(=O)O)CC1)C(C)C)C(N)=O [NOTA] | 0.019 ± 0.004 | 0.006 ± 0.001 | 0.04 ± 0.04 |  | 0.6 ± 0.1 | 0.09 ± 0.03 | 0.93 ± 0.05 |  | 0.025 ± 0.005 | 0.065 ± 0.005 | 0.09 ± 0.15 | 0.011 ± 0.005 | 0.023 ± 0.002 | 0.6 ± 0.4 | 0.18 ± 0.06 | 0.098 ± 0.028 | 0.029 ± 0.004 | 0.3 ± 0.1 | 7.3 ± 1.3 | 2.1 ± 0.2 | tissue uptake at 24 h (in vivo; Bone uptake): 0.08 ± 0.05 %ID/g; tissue uptake at 24 h (in vivo; Kidneys uptake): 0.09 ± 0.03 %ID/g; tissue uptake at 3 h (in vivo; Liver uptake): 0.07 ± 0.004 %ID/g; tissue uptake at 3 h (in vivo; Pancreas uptake): 0.21 ± 0.052 %ID/g; tissue uptake at 24 h (in vivo; Sm. Int. uptake): 0.06 ± 0.03 %ID/g; tissue uptake at 3 h (in vivo; Spleen uptake): 0.05 ± 0.008 %ID/g; tissue uptake at 24 h (in vivo; Stomach uptake): 0.05 ± 0.03 %ID/g; tissue uptake at 3 h [1, 14]: 0.08 ± 0.1 %ID/g
[57Co+2].[Cl-].[Cl-] [free cobalt, cobalt-57 chloride] |  |  |  |  |  |  |  |  |  |  |  |  |  |  |  |  |  |  |  |  | Biodistribution pattern (NMRI mice): Uniform activity distribution
